Assay results from the supplement of paper PMC9112550, “Optimization of the antimicrobial peptide Bac7 by deep mutational scanning” (BMC Biology, 2022).

System: Escherichia coli TOP10
Assay: shrunken log2 fold change of peptide-encoding DNA abundance (4.5 h post-induction vs induction); higher = less antimicrobial activity (less host growth inhibition)
Conditions: time post-induction: 4.5 h; library: site-saturation at positions 5, 18, 19, 20
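Note: peptides expressed intracellularly from a pBAD plasmid library in pooled LB shake-flask culture, induced with 0.3% L-arabinose, DNA abundance read by NGS, three biological replicates, DESeq2 with apeglm shrinkage.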

| Sequence | shrunken log2 fold change |
| --- | --- |
| RRIRCRPPRLPRPRPRPLHFPRP | -0.131 |
| RRIRPRPPRLPRPRPRPYVRPRP | -0.61 |
| RRIRRRPPRLPRPRPRPQTLPRP | 0.101 |
| RRIRWRPPRLPRPRPRPCSPPRP | -0.106 |
| RRIRPRPPRLPRPRPRPVNIPRP | -0.226 |
| RRIRSRPPRLPRPRPRPADVPRP | 0.438 |
| RRIRHRPPRLPRPRPRPFVFPRP | -0.0736 |
| RRIRGRPPRLPRPRPRPFIMPRP | -0.285 |
| RRIRFRPPRLPRPRPRPTLHPRP | -0.0536 |
| RRIRVRPPRLPRPRPRPNTVPRP | -0.0689 |
| RRIRWRPPRLPRPRPRPLRFPRP | 0.399 |
| RRIRVRPPRLPRPRPRPRAIPRP | 1.97 |
| RRIRTRPPRLPRPRPRPWSQPRP | 0.0431 |
| RRIRFRPPRLPRPRPRPLQQPRP | -0.0115 |
| RRIRARPPRLPRPRPRPCISPRP | 0.0706 |
| RRIRCRPPRLPRPRPRPKMTPRP | 0.0216 |
| RRIRCRPPRLPRPRPRPWLTPRP | -0.117 |
| RRIRERPPRLPRPRPRPIYDPRP | -0.137 |
| RRIRLRPPRLPRPRPRPIVLPRP | -0.345 |
| RRIRYRPPRLPRPRPRPLHHPRP | -1.14 |
| RRIRVRPPRLPRPRPRPHHNPRP | 0.192 |

| Sequence | shrunken log2 fold change |
| --- | --- |
| RRIRYRPPRLPRPRPRPPVRPRP | 0.0631 |
| RRIRKRPPRLPRPRPRPQGGPRP | 0.0321 |
| RRIRTRPPRLPRPRPRPNIAPRP | -0.239 |
| RRIRFRPPRLPRPRPRPLWGPRP | 0.251 |
| RRIRCRPPRLPRPRPRPDWCPRP | 0.27 |
| RRIRSRPPRLPRPRPRPLAIPRP | -0.0883 |
| RRIRYRPPRLPRPRPRPYTKPRP | -0.351 |
| RRIRQRPPRLPRPRPRPHPFPRP | -0.29 |
| RRIRRRPPRLPRPRPRPHSCPRP | 0.0404 |
| RRIRCRPPRLPRPRPRPCHQPRP | 0.0175 |
| RRIRARPPRLPRPRPRPPQHPRP | 0.655 |
| RRIRTRPPRLPRPRPRPSWHPRP | -0.23 |
| RRIRKRPPRLPRPRPRPGHIPRP | -0.0657 |
| RRIRDRPPRLPRPRPRPNIVPRP | -0.0381 |
| RRIRWRPPRLPRPRPRPAPVPRP | 0.433 |
| RRIRRRPPRLPRPRPRPRKKPRP | 0.207 |
| RRIRGRPPRLPRPRPRPTAGPRP | 1.15 |
| RRIRPRPPRLPRPRPRPVFNPRP | -0.344 |
| RRIRLRPPRLPRPRPRPQIPPRP | -0.273 |
| RRIRTRPPRLPRPRPRPKVCPRP | -0.00594 |
| RRIRTRPPRLPRPRPRPIFEPRP | -0.113 |

| Sequence | shrunken log2 fold change |
| --- | --- |
| RRIRKRPPRLPRPRPRPPQWPRP | 1.37 |
| RRIRDRPPRLPRPRPRPPMNPRP | -0.258 |
| RRIRIRPPRLPRPRPRPRIVPRP | -1.21 |
| RRIRTRPPRLPRPRPRPNMHPRP | 0.561 |
| RRIRERPPRLPRPRPRPKRQPRP | -0.0958 |
| RRIRMRPPRLPRPRPRPKRLPRP | 0.0697 |
| RRIRLRPPRLPRPRPRPNQSPRP | -0.0737 |
| RRIRVRPPRLPRPRPRPRPMPRP | 0.445 |
| RRIRHRPPRLPRPRPRPGRFPRP | 0.314 |
| RRIRTRPPRLPRPRPRPRFGPRP | 0.319 |
| RRIRYRPPRLPRPRPRPSIFPRP | -0.654 |
| RRIRTRPPRLPRPRPRPVAMPRP | -0.0639 |
| RRIRRRPPRLPRPRPRPDQEPRP | 0.0223 |
| RRIRVRPPRLPRPRPRPWNGPRP | -0.277 |
| RRIRLRPPRLPRPRPRPDYEPRP | -0.645 |
| RRIRNRPPRLPRPRPRPMNTPRP | -0.421 |
| RRIRPRPPRLPRPRPRPPGRPRP | 0.567 |
| RRIRQRPPRLPRPRPRPRKVPRP | -0.00271 |
| RRIRTRPPRLPRPRPRPSYYPRP | -0.786 |
| RRIRCRPPRLPRPRPRPNEHPRP | -0.553 |
| RRIRKRPPRLPRPRPRPFWMPRP | 0.0752 |
